These results are taken from US20260347481 (published 2026).

Non-standard residues stand in square brackets, D forms with d. No end group written: not given here. *: point of attachment. Biotin = O=C1N[C@H]2[C@H](CS[C@H]2CCCCC(=O)*)N1; Arg(Me2a) = CN(C)C(=N)NCCC[C@H](N)C(=O)O

The target in the experiment is T1, Target peptide (meEGFR R198/R200) (human, cysteine pairing not given here).
T1 chain: K(Biotin)QCSG[Arg(Me2a)]C[Arg(Me2a)]GKSPSDC-NH2

B1: Example 3 (antibody, V domains shown)
VH: QVQLQESGPGLVKPSGTLSLTCAVSGDSISSSSYYWGWIRQPPGKGLEWIGSIYYSGSTYYNPSLKSRVTISVDTSKNQFSLKLSSVTAADTAVYYCAREWNGLDVWGKGTLVTVSS
VL: LNFMLTQPHSVSESPGKTVTISCTGSSGSIASNYVQWYQQRPGSAPTTVIYEDNQRPSGVPDRFSGSIDSSSNSASLTISGLKTEDEADYYCQSYDRGNTEVMFGGGTKVTVLG
Molecule B1 came in with a concentration for a half-maximal effect (EC50) of 0.0258 nM.

B2: Example 2 (antibody, V domains shown)
VH: QVQLQESGPGLVKPSETLSLTCSVSGDSITRSGYYWAWVRQSPGKGLEYIGSISYSGTTYYNPSLKSRVTISVDTSKNQFSLKLSSVTAADTAVYYCAREWNGLDVWGKGTMVTVSS
VL: LNFMLTQPHSVSESPGKTVTISCTRSSGSIASNYVQWYQQRPGSSPTTVIYEDNQRPFGVPDRFSGSIDSSSNSASLTISGLKTEDEADYYCQSYDSGHQIFGGGTKLTVLG
Consider B2, for which the concentration giving a half-maximal response (EC50) was 0.0359 nM.

One may read the EC50 as the concentration at which the effect is half-maximal. A high value points to a less potent agent.
